In assay [1] the target is human lymphotoxin (TNFβ) (human) (UniProt P01374). The assay can be described thus: cell-based or functional assay.
The target in assay [2] is human tumor necrosis factor-α (TNFα) (human) (UniProt P01375). The assay can be described thus: cell-based or functional assay.
Sequence of human tumor necrosis factor-α (TNFα) (human) (P01375 77-233): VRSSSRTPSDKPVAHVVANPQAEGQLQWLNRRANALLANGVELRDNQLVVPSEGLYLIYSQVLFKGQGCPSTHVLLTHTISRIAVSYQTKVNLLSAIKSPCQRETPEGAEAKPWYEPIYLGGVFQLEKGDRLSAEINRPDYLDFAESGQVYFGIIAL

Sequence of human lymphotoxin (TNFβ) (human) (P01374 35-205 limits assumed): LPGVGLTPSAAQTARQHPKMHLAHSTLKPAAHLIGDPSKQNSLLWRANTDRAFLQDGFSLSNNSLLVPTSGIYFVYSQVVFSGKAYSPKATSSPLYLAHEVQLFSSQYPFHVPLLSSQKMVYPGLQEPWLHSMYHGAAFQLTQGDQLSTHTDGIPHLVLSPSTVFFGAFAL

“p55-sf2 TNF receptor/IgG1 fusion protein (from UniProt P19438) (Fc fusion)” displayed an amount needed for the same degree of inhibition of TNFβ cytotoxicity, against p75P-sf2 (fold against p75P-sf2) in assay [1] of 3.
For “p75-sf2 TNF receptor/IgG1 fusion protein (from UniProt P20333 23-257) (Fc fusion)”, in assay [1], the amount needed for the same degree of inhibition of TNFβ cytotoxicity, against p75P-sf2 (fold against p75P-sf2) is 3.
Regarding “p75P-sf2 TNF receptor/IgG1 fusion protein (from UniProt P20333 23-204) (Fc fusion)”, in assay [1], the concentration to half-inhibit human TNFβ at 2 pM, WEHI 164 cytotoxicity assay amounted to 31 pM.

B1: chimeric mouse/human IgG1 anti-platelet mAb (7E3) (antibody, INN chains, looked up, V domains shown)
VH: EVQLQQSGTVLARPGASVKMSCEASGYTFTNYWMHWVKQRPGQGLEWIGAIYPGNSDTSYIQKFKGKAKLTAVTSTTSVYMELSSLTNEDSAVYYCTLYDGYYVFAYWGQGTLVTVSA
VL: EIVLTQSPVTLSVTPGDSVSLSCRASRDISNNLHWFQQTSHESPRLLIKYASQSMSGIPSRFSGSGSGTDFTLSINSVETEDFGMYFCQQTNSWPYTFGGGTKLEIK
modifications: chimeric IgG1
For B1, in assay [2], the IL-6 in supernatant of FS-4 fibroblasts (ng/ml), rhTNF 0.3 ng/ml with 4 µg/ml antibody (no antibody: 1.36) amounted to 1.6 ng/mL; the IL-6 in supernatant of FS-4 fibroblasts (ng/ml), rhTNF 1.5 ng/ml with 4 µg/ml antibody (no antibody: 2.00) was found to be 1.96 ng/mL; the IL-6 in supernatant of FS-4 fibroblasts (ng/ml), rhTNF 7.5 ng/ml with 4 µg/ml antibody (no antibody: 2.56) came out at 2.16 ng/mL.
